Measurements taken from patent publication US8129349B2, “Treatment of disease by inducing cell apoptosis” (The Regents of the University of California, priority 2000, dated 2012).
Marks after values point to notes of the source that are not given here.

Key:
[1] = system: C3A (liver cancer cell line); experiment: Annexin-V binding apoptosis assay after transfection, C3A cells; format: cell-based, human; conditions: annexin-V binding four hours after transfection
Procedure: (§1) In these experiments, C/EBPβ-Ala^217 was tested in two mesenchymal cell lines for its ability to induce apoptosis. Human mesenchymal cell lines 1321-N1 (glial cancer cells; obtained from Dr. Joan Brown, at the University of California, San Diego), RD (skeletal muscle cancer cells; ATCC Accession No. CCL-136), human fibroblasts (98VA3N cells, obtained from Dr. Jerry VanderBerg, at the Veterans Administration Medical Center, San Diego, Calif.), ES2 (ovarian cancer cell line), C3A (liver cancer cell line), and MCF-7 breast cancer cells were cultured in minimal essential medium supplemented with fetal bovine serum as known in the art (See e.g., Buck et al., EMBO J., 13:151-160 (1994)). As additional cell types find use in the present invention, it is not intended that the present invention be limited to these specific cell lines. Indeed, similar results have been obtained with other cell types (e.g., CCF-STTG1 cells (ATCC Accession No. CRL-1718)) (data not shown).
(§2) Cells were co-transfected with vectors expressing the indicator protein GFP and C/EBPβ-Ala^217 as known in the art (See, Buck et al., Mol. Cell., 4:1087-1092 (1999)). Control cells were only transfected with GFP. […]

[2] = system: hepatic stellate cells; experiment: Apoptosis of activated stellate cells transfected with C/EBPβ constructs, annexin-V-PE binding; format: cell-based, mouse; conditions: transfected cells on collagen type I matrix
From the text: FIG. 1 provides data showing that phosphorylation of C/EBPβ on Thr^217 is required for hepatic stellate cell survival. Panel A provides phosphopeptide maps of in vivo labeled endogenous C/EBPβ in day-4 quiescent and activated primary mouse stellate cells cultured from the time of isolation on EHS or collagen type I matrix, respectively. The arrow indicates the peptide containing Phospho-Thr^217 in activated cells. […] Panel B provides phosphopeptide maps of in vitro labeled C/EPBβ. Active p90RSK phosphorylated C/EPBβ, but not C/EBPβ-Ala^217 on Thr^217 in vitro (arrowheads). Panel C provides results for cells cultured on collagen type I transfected with MSV-C/EBPβ antisense (AS), MSV-C/EBPβ sense (S), or MSV-C/EBPβ-Ala^217 together with CMV-GFP (green fluorescent protein) and p90RSK (1 μg each), as indicated in the Figure. Four hours after transfection, annexin-V-PE binding to plasma membranes was determined. The values presented are the percentage of transfected cells (green) that were annexin-V-PE (+) (red) (P<0.05 for C/EBPβ AS, and C/EBPβ-Ala^217). Panel D provides results for cells transfected as in […] with vectors expressing dominant negative mutants for MEKK1, IκBα, or p90RSK, or treated with the proteasome inhibitor lactacystin (10 μM) (closed bars), and co-transfected with MSV-C/EBPβ-Glu^217 (1 μg each) (open bars) as indicated. Annexin-V-PE binding was determined as described for Panel A (P<0.05 for C/EBPβ-Glu^217). Panel E provides results for cells transfected as described for Panel C, with a dominant-negative p90RSK, treated with FAS (100 nM for 6 hours) or cultured in a serum-free medium for 6 hours (closed bars), and co-transfected with MSV-C/EBPβ-Glu^217 (1 μg each) (open bars), as indicated. Cell death was determined by nuclear staining with Hoechst 33342 (P<0.05 for C/EBPβ-Glu^217 in RSK mut and FAS-treated cells).
FIG. 4 provides results showing that C/EBPβ PThr^217 associates with procaspases 1 and 8, and inhibits their activation. Panel A provides schematic representations of C/EBPβ peptides. The activation (dotted bars), DNA binding (solid bars) and dimerization (hatched bars) domains are shown. […] Panel C provides results showing that C/EBPβ and procaspase 8 were detected in activated stellate cells isolated from C/EBPβ^+/+ mice by confocal microscopy using specific antibodies (Santa Cruz Biotechnology). Control C/EBPβ^−/− stellate cells were negative for C/EBPβ, positive for procaspase 8, and apoptotic. Panel D provides immunoblot results for MSV vectors expressing C/EBPβ-HA (hemagglutinin protein) peptides (0.3 μg) transfected into activated stellate cells. The expressed peptides were immunoprecipitated with anti-HA antibodies. C/EBPβ-PThr^217 was detected using a specific antibody, only in cells expressing wild-type C/EBPβ. […] RSK was associated with all C/EBPβ peptides. Neither C/EBPβ nor procaspases 1 and 8 were detected in C/EBPβ immunoprecipitates from cells expressing C/EBPβ AS. Reciprocal immunoprecipitations of procaspases and RSK confirmed these associations.
Adult male Sprague-Dawley rats and adult male C/EBPβ^+/+ and C/EBPβ^−/− (Screpanti et al., supra; and Buck et al., (1999), supra), C/EBPβ-Ala^217 and C/EBPβ-Asp^105 transgenic mice were used for the isolation of primary hepatic stellate cells (Houglum et al., supra). Primary hepatic stellate cells were isolated by collagenase/pronase perfusion and purified by a single step density Nycodenz gradient (Accurate Chemical & Scientific) as known in the art (See, Lee et al., (1995), supra). Cells were plated on type I collagen matrix (Becton Dickinson) or EHS matrix (Matrigel, Collaborative Biomedical Products). Cells were cultured with 10% fetal calf serum/10% fetal bovine serum and transfected with lipofectamine (GIBCO) for DNA vectors or with the Chariot reagent (Active Motif) for peptides (10 μM) as known in the art (See, Houglum et al., supra; and Morris et al., J. Biol. Chem., 274:24942-24946 (1999)). […]

[3] = system: 1321-N1 (glial cancer cells); experiment: Annexin-V binding apoptosis assay after transfection, 1321-N1 cells; format: cell-based, human; conditions: annexin-V binding four hours after transfection
Procedure: as §1, §2

[4] = system: RD (skeletal muscle cancer cells); experiment: Annexin-V binding apoptosis assay after transfection, RD cells; format: cell-based, human; conditions: annexin-V binding four hours after transfection
Procedure: as §1, §2

[5] = system: human fibroblasts (98VA3N cells); experiment: Annexin-V binding apoptosis assay after transfection, 98VA3N cells; format: cell-based; conditions: annexin-V binding four hours after transfection
Procedure: as §1, §2

[6] = system: MCF-7 breast cancer cells; experiment: Annexin-V binding apoptosis assay after transfection, MCF-7 cells; format: cell-based, human; conditions: annexin-V binding four hours after transfection
Procedure: as §1, §2

[7] = system: ES2 (ovarian cancer cell line); experiment: Annexin-V binding apoptosis assay after transfection, ES2 cells; format: cell-based, human; conditions: annexin-V binding four hours after transfection
Procedure: as §1, §2

B1: C/EBPβ-Ala^217: modified murine C/EBPβ with mutation of Thr^217 to Ala (SEQ ID NO:3), nonphosphorylatable dominant negative mutant (protein, listed as Mus musculus)
chain: MHRLLAWDAACLPPPPAAFRPMEVANFYYEPDCLAYGAKAARAAPRAPAAEPAIGEHERAIDFSPYLEPLAPAADFAAPAPAHHDFLSDLFADDYGAKPSKKPADYGYVSLGRAGAKAAPPACFPPPPPAALKAEPGFEPADCKRADDAPAMAAGFPFALRAYLGYQATPSGSSGSLSTSSSSSPPGTPSPADAKAAPAACFAGPPAAPAKAKAKKAVDKLSDEYKMRRERNNIAVRKSRDKAKMRNLETQHKVLELTAENERLQKKVEQLSRELSTLRNLFKQLPEPLLASAGHC
- Apoptosis (%) [1]: 34* %
- Effect of expressed construct on apoptosis / survival of stellate cells [2]: became apoptotic
- Apoptosis (%) [3]: 56* %
- Apoptosis (%) [4]: 46* %
- Apoptosis (%) [5]: 80* %
- Apoptosis (%) [6]: 49* %
- Apoptosis (%) [7]: 44* %
